Source: doi:10.1101/2023.11.14.567104

Molecular target: Recombinant soluble integrin αvβ3 (UniProt P06756)
Assay: SPR

Heparin-binding domain (HBD, residues 111-165) of VEGF165, wild type (domain or fragment)
Kd: 470 nM
